Experimental data taken from the RNAGym collection of RNA variant scans (doi:10.1073/pnas.2313332121).
Variants at the floor of the assay were thinned out.

B1: TPR 5TU (parent)
chain: GGAUCUUCUCGAUCUAACAAAAAAGACAAAUCUGCCACAAAGCUUGAGAGCAUCUUCGGAUGCAGAGGCGGCAGCCUUCGGUGGCGCGAUAGCGCCAACGUUCUCAACUAUGACACGCAAAACGCGUGCUCCGUUGAAUGGAGUUUAUCAUG

Variants of: B1
Assay: polymerase ribozyme fitness, log enrichment relative to wild type (log ratio); higher = more active; in vitro selection for triplet polymerase activity
Summary of the method: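 The heterodimeric triplet polymerase ribozyme's subunits were each mutagenized into PCR-built libraries and transcribed. Every library was selected once, in triplicate, by annealing with a biotinylated primer, the partner subunit and triplets, incubating frozen at −7 °C, gel-excising extended constructs, capturing on streptavidin beads and running RT-PCR. Input and output libraries were Illumina-sequenced, with genotypes kept only at ≥10 input reads and ≥1 read per output. Fitness, from inverse-variance-weighted replicate averages, is the base-2 logarithm of genotype enrichment over wild-type enrichment.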

Row | Variant | polymerase ribozyme fitness (log ratio)
1 | C5A U45G C85G | -2.33
2 | G59A U78G A91U U102G | ≤ -4.2
3 | G48A C85A C123U U134C | -1.46
4 | A16U A22G C57A U135A | -3.06
5 | C18U C38G A40G U61A G81C C96A C116G A119U | ≤ -4.2
6 | A49C A52G G58C G84A C131G G133C U145A | ≤ -4.2
7 | C51U G59A C85G A137U | ≤ -4.2
8 | C18U A47G A52U G68U C79A C93U C99A G141C A142G G143U | ≤ -4.2
9 | G62A C87U A120G A142C | -3.11
10 | U104G | -0.299
11 | U7C G50U G140U | ≤ -4.2
12 | U55A C93U A115U G143U | ≤ -4.2
13 | A20C A49C A52C C57U C76A G88A A106G G126C U145G | ≤ -4.2
14 | C75U U139A G140C | -4.11
15 | C63G | 0.136
16 | A52G C75A G84U A110U | ≤ -4.2
17 | C76G G86A | ≤ -4.2
18 | C5U U33A G88U C96U U127C | ≤ -4.2
19 | C10U G70U C87A C118U | ≤ -4.2
20 | C18G A20C G34U U55G C118U C123U | -4.18
21 | A52G A106G | -0.771
22 | A16C A21G C54A C95A | -3.07
23 | G81A C95A | -0.0952
24 | G86C | -2.55

Row | Variant | polymerase ribozyme fitness (log ratio)
25 | C8A U56A C79U G84C G112A C131U U146A | ≤ -4.2
26 | U45G A52G U82C U101G C131U | -3.32
27 | U13G C75A C108G G143A | ≤ -4.2
28 | A12C A64G C85A G100C | ≤ -4.2
29 | A20C U144G | 0.273
30 | A22U C114A | -3.29
31 | C93U C99U | -2.8
32 | A16G C93G | -4.02
33 | C51A C87A G133U C149G | ≤ -4.2
34 | A16C A20U | -2.36
35 | C36A C93U G100U | ≤ -4.2
36 | U9C U33G A52C C93G A110U | ≤ -4.2
37 | A66G C76U C85A C96U | ≤ -4.2
38 | C54A G58C | -1.45
39 | U6A A22C G50A U61G C79U C85A G143U A147C | ≤ -4.2
40 | C18G C36G U78A C85A | ≤ -4.2
41 | A24U A60U G83A | -1.22
42 | A16G C35U C116G | -1.98
43 | C54U C96U C118U | -0.868
44 | G34U A40G U55G U56A U101A U102G G126A | ≤ -4.2
45 | A20C A49G | -0.512
46 | C18G A24G G50U U55A A106C C125A | ≤ -4.2
47 | U45A U82G C129A U139A U145G | ≤ -4.2
48 | A115U G126A | -3.35

Row | Variant | polymerase ribozyme fitness (log ratio)
49 | A19U G50A G71A A89G A137G | ≤ -4.2
50 | A37C G46A U61A G74A C93U A122U | ≤ -4.2
51 | U15A C36U C87U G124U A137C | -4.03
52 | G34U A142C | -3.85
53 | C54A C125U | -3.73
54 | A39G C99A | -3.78
55 | A41C C93G U144C | -3.7
56 | C54A C93G U135G | ≤ -4.2
57 | A21C A40C C99G | -0.927
58 | G81C C125A G140C | -3.98
59 | C85U U104G | -0.929
60 | U4C G94C C116G | -0.818
61 | A16G U78A C93G | ≤ -4.2
62 | U9G A29U U53G U55G C93A A137C | ≤ -4.2
63 | G59C G92A | -2.89
64 | G92A C118G | -3.69
65 | C75G G94A | -4.08
66 | G25U G50C U77A C87U A107G | ≤ -4.2
67 | A37U A40C U55A G58A G59A G84C G126A | -4.07
68 | U13C C93A | -2.64
69 | G59C G86U C95U | -2.13
70 | A52C G83U A106G | -2.56
71 | A16C C57U C129U G143A | -1.91
72 | A17G G48U C87U A89U A119C | -2.96

Row | Variant | polymerase ribozyme fitness (log ratio)
73 | A22C U144G | 0.903
74 | U33G G86U | -3.95
75 | U31A C51G | -0.943
76 | A20G U33C C87U A89G U151G | ≤ -4.2
77 | U33C A40C G68U C95A U102C C132G | -3.48
78 | C96A G124U | -0.674
79 | C131A | -1.77
80 | A30U A52U C93A | ≤ -4.2
81 | U6G C75U | 0.374
82 | C36U G59C C95A | -1.64
83 | C14A C93U | -2.33
84 | A16U C27U C57A C93A A107C C125A U146G | ≤ -4.2
85 | A91U A113C | ≤ -4.2
86 | A41G A49C U82G U90G G133A | ≤ -4.2
87 | A91G G112C | -3.76
88 | A21U C69U C87U C96A | -1.14
89 | A19U A20U C35U G59C U77C C118U C123U G141A U151G | ≤ -4.2
90 | U53A U56G | -1.11
91 | G42A A89G C93U C125U G141U | ≤ -4.2
92 | U61A U82A | -1.03
93 | U55C C85U G136C | -3.51
94 | A66U C87A A106U G143C | ≤ -4.2
95 | A23G A41U C76G G80A A89U G124U | ≤ -4.2
96 | U31G G62C G88C A119G | ≤ -4.2

Row | Variant | polymerase ribozyme fitness (log ratio)
97 | A17G C18G A40C C85G A106U G124U C125U | ≤ -4.2
98 | G83U G94C C116U | -2.08
99 | C36U U55A | -0.574
100 | A52C A98G C132G | ≤ -4.2
101 | C93U A97C | -0.557
102 | U55A A91C | ≤ -4.2
103 | A22C C27G C76U C96G G140U | ≤ -4.2
104 | A17C A30G C79G C87G C96G C105A | ≤ -4.2
105 | C38U U148C | -1.36
106 | C69A G81U G84U | ≤ -4.2
107 | U55G G83C | -0.921
108 | C38U C87U G94U | -1.73
109 | A16C A20C C85A G141C | -2.3
110 | G83A A97C U104A G136A | -1.39
111 | A52C A73G C85A | -3.88
112 | A26U A39C A49G G128A A138G | ≤ -4.2
113 | A52G A60U C85A G94U C96G | -3.93
114 | G58A A66C G74C C131G G136U | ≤ -4.2
115 | C87U C105G A121U A122U | -1.19
116 | A21U A47U C93U | -0.679
117 | A113G A138U | -3.79
118 | U7A A26G C75G C93A | -4.13
119 | C35U G58C U90G U104A G126A U135A U145G | ≤ -4.2
120 | C85U G128U C131U | -2.93

Row | Variant | polymerase ribozyme fitness (log ratio)
121 | A3U C8U C27A A28C C51A A52C C54A C93U C103G C108G A115C C118A U135A A142U | ≤ -4.2
122 | U55A C72A C99U G126A U139C | ≤ -4.2
123 | A12U A17G C57A A98U | -0.729
124 | C10G C76U | -3.93
125 | C18U G83A | -0.637
126 | C18U A39C C57U G83A C95U U148C C149A | ≤ -4.2
127 | A16C A24G A73C A121G | ≤ -4.2
128 | U15A A16G G58U C69G C85U A89U C96U C108U | ≤ -4.2
129 | A28U G58U C79G G92U | ≤ -4.2
130 | U6G A120G | -0.399
131 | C85G C118U | -3.37
132 | C38U C95A C108U C132U | -3.39
133 | A52C G70A U90G A106U | ≤ -4.2
134 | G59A C87G G140C | ≤ -4.2
135 | A137G U144A | -3.01
136 | A19G A41U A66C C93U C99U A115U G140A G141C | ≤ -4.2
137 | U6C C27U G50C A52G G58A C87U | ≤ -4.2
138 | U55G A73U A122G G126C | -1.69
139 | G94C A107G | -3.89
140 | A39U A47G C95U A110G | -3.7
141 | C5G C35U A52C G59C A106G C108A C114U A119U A122U G133U | ≤ -4.2
142 | C51G C79G G86U C114U U134A | ≤ -4.2
143 | C96A C125A | -0.718
144 | A40U C57U A89C C99G A119G | -1.22

Row | Variant | polymerase ribozyme fitness (log ratio)
145 | G67A A98U U139C U148A | ≤ -4.2
146 | A23G C51U G65C G88C U111A C131G C149G | ≤ -4.2
147 | U55A G80A | -1.65
148 | C54U U56C | -0.57
149 | U6C C87A | ≤ -4.2
150 | A89C U148C | -3.51
151 | C27G C95A G141C | -3.77
152 | A20G A21C U31C C103A U144G | -1.73
153 | C8G A20C G67C G68C A113U | ≤ -4.2
154 | C35U C118U | -0.573
155 | C18U G83C | -1.3
156 | A30C C54U C69A G70A A137C | ≤ -4.2
157 | A73G C96U A119U | -0.341
158 | C14A U31A U55A G92A C125U A142U | ≤ -4.2
159 | C8A G50U | -3.79
160 | A47U G48A U146G | -2.73
161 | U55A U61A A91U A97C A142G | ≤ -4.2
162 | U45G C54A U55A C85G G133U | ≤ -4.2
163 | A107G G141U | -3.07
164 | G86A A122G | -1.11
165 | C27A G88A C96A A97G G128U U135G U145A | ≤ -4.2
166 | U13G C85A | -2.23
167 | A21U A41U U55G G83A U145A | -2.5
